The record followed here is patent publication US20090324601A1 (published 2009).

For assay [1], the target named is PDGFR-alpha on human osteosarcoma MG-63 cells (human, UniProt P16234 24-1089). Nature of the assay: cell-based or functional assay.
Assay [2] concerns the target T1, murine PDGFRa on NIH3T3 cells (murine, UniProt P26618 25-1089).
T1 construct: whole, on cells; also called mouse PDGFR-alpha
In words: FACS on NIH3T3 cells, goat anti-human IgG Cy5.
Method: To set up animal xenograft studies, mouse cross-reactivity was determined using FACS analysis performed with NIH3T3 cells, a murine fibroblast line which expresses endogenous PDGFRa. […] Cells were rinsed and analyzed by FACS for the presence of Cy5.

The target of assay [3] is T2, PDGFR-alpha on MG-63 cells (human, UniProt P16234 24-1089). In words: cell-based or functional assay.
T2 sequence (P16234 24-1089): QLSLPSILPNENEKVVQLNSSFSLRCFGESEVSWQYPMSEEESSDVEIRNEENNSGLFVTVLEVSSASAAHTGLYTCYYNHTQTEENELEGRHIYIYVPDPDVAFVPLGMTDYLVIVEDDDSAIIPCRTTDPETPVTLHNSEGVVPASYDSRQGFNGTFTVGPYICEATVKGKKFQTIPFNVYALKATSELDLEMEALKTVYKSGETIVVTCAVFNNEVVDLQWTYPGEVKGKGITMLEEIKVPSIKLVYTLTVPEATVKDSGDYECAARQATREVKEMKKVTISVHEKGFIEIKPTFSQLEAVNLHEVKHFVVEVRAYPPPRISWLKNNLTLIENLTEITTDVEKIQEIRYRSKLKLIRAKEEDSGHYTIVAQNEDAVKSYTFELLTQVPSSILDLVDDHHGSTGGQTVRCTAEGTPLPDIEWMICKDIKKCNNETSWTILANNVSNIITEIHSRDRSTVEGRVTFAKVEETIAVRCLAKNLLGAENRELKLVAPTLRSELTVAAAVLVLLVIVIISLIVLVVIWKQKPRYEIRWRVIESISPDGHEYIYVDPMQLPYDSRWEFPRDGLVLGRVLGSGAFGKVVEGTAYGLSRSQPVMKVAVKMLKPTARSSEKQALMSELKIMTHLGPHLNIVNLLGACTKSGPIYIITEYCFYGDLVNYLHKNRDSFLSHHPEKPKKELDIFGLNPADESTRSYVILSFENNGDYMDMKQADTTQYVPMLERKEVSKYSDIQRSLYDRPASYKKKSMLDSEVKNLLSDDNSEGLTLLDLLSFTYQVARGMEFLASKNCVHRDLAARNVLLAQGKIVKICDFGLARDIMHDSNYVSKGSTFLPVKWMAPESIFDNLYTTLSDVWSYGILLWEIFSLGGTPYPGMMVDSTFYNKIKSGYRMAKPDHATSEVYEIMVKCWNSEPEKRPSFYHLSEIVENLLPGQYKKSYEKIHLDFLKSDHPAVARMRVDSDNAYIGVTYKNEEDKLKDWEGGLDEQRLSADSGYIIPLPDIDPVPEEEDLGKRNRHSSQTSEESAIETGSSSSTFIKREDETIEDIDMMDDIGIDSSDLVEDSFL
Assay [4] addresses T2, PDGFR-alpha on MG-63 cells. In words: cell-based or functional assay. The source holds these as a separate data set.

Chain of PDGFR-alpha on human osteosarcoma MG-63 cells (P16234 24-1089): as above
T1 sequence (P26618 25-1089): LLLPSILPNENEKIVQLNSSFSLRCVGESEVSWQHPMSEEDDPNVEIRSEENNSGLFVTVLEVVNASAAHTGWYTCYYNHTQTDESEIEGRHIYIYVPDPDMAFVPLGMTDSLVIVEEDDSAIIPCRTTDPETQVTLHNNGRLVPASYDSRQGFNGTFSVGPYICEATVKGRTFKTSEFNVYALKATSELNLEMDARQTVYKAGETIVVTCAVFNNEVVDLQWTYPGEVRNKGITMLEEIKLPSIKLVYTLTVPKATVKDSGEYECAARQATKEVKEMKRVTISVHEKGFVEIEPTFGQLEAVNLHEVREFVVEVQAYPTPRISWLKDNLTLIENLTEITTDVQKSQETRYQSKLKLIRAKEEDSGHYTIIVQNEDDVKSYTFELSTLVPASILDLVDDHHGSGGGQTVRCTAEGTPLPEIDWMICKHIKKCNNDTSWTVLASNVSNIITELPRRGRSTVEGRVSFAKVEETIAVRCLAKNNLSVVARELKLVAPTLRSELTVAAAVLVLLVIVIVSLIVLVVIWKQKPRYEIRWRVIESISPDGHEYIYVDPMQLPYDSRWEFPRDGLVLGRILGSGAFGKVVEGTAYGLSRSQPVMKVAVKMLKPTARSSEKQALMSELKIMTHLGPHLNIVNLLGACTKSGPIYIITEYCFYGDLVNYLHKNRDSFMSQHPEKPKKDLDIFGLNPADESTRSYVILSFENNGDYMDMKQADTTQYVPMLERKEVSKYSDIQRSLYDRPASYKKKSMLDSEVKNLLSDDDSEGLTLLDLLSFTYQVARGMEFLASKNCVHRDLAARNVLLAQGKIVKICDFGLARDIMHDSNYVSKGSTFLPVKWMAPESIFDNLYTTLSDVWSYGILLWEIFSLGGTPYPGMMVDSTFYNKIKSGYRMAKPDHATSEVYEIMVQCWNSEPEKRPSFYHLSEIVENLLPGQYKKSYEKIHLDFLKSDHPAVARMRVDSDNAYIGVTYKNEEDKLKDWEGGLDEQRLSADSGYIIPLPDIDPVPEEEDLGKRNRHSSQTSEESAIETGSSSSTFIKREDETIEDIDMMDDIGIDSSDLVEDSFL

B1: 3.341.2 (antibody, V domains shown)
VH: EVQLVESGGGLVQPGGSLRLSCAASGFTFSSYSMNWVRQAPGKGLEWVSFISGSSSTMYYADSVKGRFTISRDNAKNSLYLQMNSLRDEDTAVYYCARLRYFDWSYAFDIWGQGTMVTVSS
VL: DIQMTQSPSSVSTSVGDRVTITCRASQGIRSWLAWYQQRPGKAPKLLIYAASSLQNGVPSRFSGSGSGTDFTLTISSLQPEDFATYFCQQATSFPFTFGPGTKVDIN
notes: Only variable regions
Take B1: in assay [1], the “Proliferation Assay: IC50 ng/ml (1-6-06)” value stood at 404 ng/mL, the “Proliferation Assay: IC50 ng/ml (1-23-06)” value amounted to 471 ng/mL, the “Proliferation Assay: IC50 (1-6-06)” value is 2.7 nM and the “Proliferation Assay: IC50 (1-23-06)” value is 3.1 nM. Further, the “pTyr Assay: % Inhibition @ 2 µg/ml” value in assay [1] turned out to be 100%. Also, in assay [2], the binding result is listed as “no binding (tested: 10 ug/ml)”.

B2: 3.341.2 (antibody, V domains shown)
VH: EVQLVESGGGLVQPGGSLRLSCAASGFTFSSYSMNWVRQAPGKGLEWVSFISGSSSTMYYADSVKGRFTISRDNAKNSLYLQMNSLRDEDTAVYYCARLRYFDWSYAFDIWGQGTMVTVSS
VL: DIQMTQSPSSVSTSVGDRVTITCRASQGIRSWLAWYQQRPGKAPKLLIYAASSLQNGVPSRFSGSGSGTDFTLTISSLQPEDFATYFCQQATSFPFTFGPGTKVDIN
As to B2, in assay [3], the “Average pTyr Inhibition” value was over 100%. Moreover, the “PROLIFERATION ASSAY: MG-63 CELLS, IC50” value in assay [4] amounted to 3.1 nM.

B3: 2.414.2 (antibody, V domains shown)
VH: QLQLQESGPGLVKPSETLSLTCTVSGGSISSSNYYWGWIRQPPGKGLEWIGTIYYTGSTYYNPSLKSRVTISVDTSKNQFSLKLSSVTAADTAVYYCARHHWVFDYWGQGTLVTVSS
VL: EIVLTQSPDFLSVTPKEKVTITCRASQIIGSSLHWYQQKPDQSPKLLIKYASQSFSGVPSRFSGSGSGTDFTLTLNSLEAEDAATYYCHQSTILPWTFGQGTKVEIK
Consider B3, for which, in assay [1], the “Proliferation Assay: IC50 ng/ml (1-6-06)” value was determined as 658 ng/mL, the “Proliferation Assay: IC50 ng/ml (1-23-06)” value was 349 ng/mL, the “Proliferation Assay: IC50 (1-6-06)” value worked out at 4.4 nM and the “Proliferation Assay: IC50 (1-23-06)” value was 2.3 nM. The “pTyr Assay: % Inhibition @ 2 µg/ml” value in assay [1] amounted to 99%. In assay [2], the binding result is “no binding (tested: 10 ug/ml)”.

B4: 2.542.2 (antibody, V domains shown)
VH: QLQLQESGPGLVKPSETLSLTCTVSGGSISSSTYYWGWIRQPPGKGLEWIGTIYYSGSTYYNPSLKSRVTISVDTSKNQFSLKLNSVTAADTAVYYCARHHWVFDYWGQGTLVTVSS
VL: EIVLTQSPDFLSVTPKEKVTITCRASQIIGSSLHWYQQKPDQSPNLLIKYASQSVSGVPSRFSGSGSGTDFTLTLNSLEAEDAATYYCHQSTILPWTFGQGTKVEIK
Take B4: the “Average pTyr Inhibition” value in assay [3] is 91%. The “PROLIFERATION ASSAY: MG-63 CELLS, IC50” value in assay [4] turned out to be 4.35 nM.

B5: 2.414.2 (antibody, V domains shown)
VH: QLQLQESGPGLVKPSETLSLTCTVSGGSISSSNYYWGWIRQPPGKGLEWIGTIYYTGSTYYNPSLKSRVTISVDTSKNQFSLKLSSVTAADTAVYYCARHHWVFDYWGQGTLVTVSS
VL: EIVLTQSPDFLSVTPKEKVTITCRASQIIGSSLHWYQQKPDQSPKLLIKYASQSFSGVPSRFSGSGSGTDFTLTLNSLEAEDAATYYCHQSTILPWTFGQGTKVEIK
In the case of B5, the “Average pTyr Inhibition” value in assay [3] was 98%. Moreover, in assay [4], the “PROLIFERATION ASSAY: MG-63 CELLS, IC50” value was 2.3 nM.

B6: 2.542.2 (antibody, V domains shown)
VH: QLQLQESGPGLVKPSETLSLTCTVSGGSISSSTYYWGWIRQPPGKGLEWIGTIYYSGSTYYNPSLKSRVTISVDTSKNQFSLKLNSVTAADTAVYYCARHHWVFDYWGQGTLVTVSS
VL: EIVLTQSPDFLSVTPKEKVTITCRASQIIGSSLHWYQQKPDQSPNLLIKYASQSVSGVPSRFSGSGSGTDFTLTLNSLEAEDAATYYCHQSTILPWTFGQGTKVEIK
On to B6, for which, in assay [1], the “Proliferation Assay: IC50 ng/ml (1-6-06)” value is 1040 ng/mL, the “Proliferation Assay: IC50 ng/ml (1-23-06)” value turned out to be 652 ng/mL and the “pTyr Assay: % Inhibition @ 2 µg/ml” value is 99%. In addition, the binding result in assay [2] is reported as “no binding (tested: 10 ug/ml)”.

B7: 5.16.1 (antibody, V domains shown)
VH: QVQLVQSGAEVKKPGASVKVSCKASGYTFTSYYMYWVRQAPGQGLEWMGIINPSGGSTSYAQKFQGRVTMTRDTSTSTVYMELSSLRSEDTAVYYCARGSSPFFDYWGQGTLVTVSS
VL: DIQMTQSPSSLSASVGDRVTITCRASQIISHFLNWYQQKPGKAPKLLVYVASSLQSGVPSRFSGSGSGTDFTLTISSLQPEDFATYYCQQSFSIPLTFGGGTKVEIK
As to B7, in assay [1], the “Proliferation Assay: IC50 ng/ml (1-6-06)” value amounted to 386 ng/mL, the “Proliferation Assay: IC50 ng/ml (1-23-06)” value was found to be 423 ng/mL, the “Proliferation Assay: IC50 (1-6-06)” value was found to be 2.57 nM and the “Proliferation Assay: IC50 (1-23-06)” value was 2.81 nM. For the same molecule, in assay [1], the “pTyr Assay: % Inhibition @ 2 µg/ml” value is 99%. Moreover, the binding result in assay [2] is “no binding (tested: 10 ug/ml)”.

B8: 2.351.3 (antibody, V domains shown)
VH: QVQLVQSGAEVKKPGASVKVSCKASGYTFIGYYLHWVRQAPGQGLEWMGSINPNSGGTNYAQKFQGRVTMIRDTSINTAYMELSRLRSDDTAVYYCARDKRITMVRGVHYLYYGWDVWGQGTTVTVSS
VL: DIQMTQSPSSLSASVGDRVTITCRASQVISNYLAWYQQKPGKVPQLLIYAASTLQSGVPSRFSGSGSGTDFTLTISSLQPEDVATYYCQNYKSAPWTFGQGTKVEIK
As to B8, the “Average pTyr Inhibition” value in assay [3] worked out at 97%. Further, the “PROLIFERATION ASSAY: MG-63 CELLS, IC50” value in assay [4] amounted to 4.3 nM.

B9: 2.796.2 (antibody, V domains shown)
VH: QVQLVESGGGLVKPGGSLRLSCAASGFTFSDYYMNWIRQAPGKGLEWVSYISSSGSIIYYADSVKGRFTISRDNAKNSLYLQMNSLRAEDTAVYYCARDGHIAARGMDVWGQGTTVTVSS
VL: DIQMTQSPSSLSASVGDRVTITCRASQSFSRYINWYQQKPGKAPKLLIYAASSLQGGVPSRFSGSGSGTDFTLTISSLQPEDFATYYCQQTYSNPPITFGQGTRLEIK
B9: in assay [1], the “Proliferation Assay: IC50 ng/ml (1-6-06)” value came to 498 ng/mL, the “Proliferation Assay: IC50 ng/ml (1-23-06)” value turned out to be 757 ng/mL and the “pTyr Assay: % Inhibition @ 2 µg/ml” value is 99%. Also, the binding result in assay [2] is reported as “no binding (tested: 10 ug/ml)”.

B10: 2.737.1.4 (antibody, V domains shown)
VH: QVQLVESGGGLVKPGGSLRLSCAASGFTFRDYYMSWIRQAPGKGLEWVAFISSSGSIIYYADSVKGRFTISRDNAKNSLFLQMNSLRAEDTAVYYCARDGHIAARGMDVWGQGTTVTVSS
VL: DIQMTQSPSSLSASVGDRVTITCRASQSINKYINWYQQKPGKAPKLLIYAASSLQSGVPSRFNGSGSGTDFTFTINTLQPEDFATYYCQQTYSTPPITFGQGTRLEIK
B10: in assay [1], the “Proliferation Assay: IC50 ng/ml (1-6-06)” value worked out at 551 ng/mL, the “Proliferation Assay: IC50 ng/ml (1-23-06)” value was found to be 558 ng/mL, the “Proliferation Assay: IC50 (1-6-06)” value was 3.7 nM and the “Proliferation Assay: IC50 (1-23-06)” value is 3.73 nM. In addition, in assay [1], the “pTyr Assay: % Inhibition @ 2 µg/ml” value was 99%. Also, in assay [2], the binding result is “no binding (tested: 10 ug/ml)”.

B11: 2.796.2 (antibody, V domains shown)
VH: QVQLVESGGGLVKPGGSLRLSCAASGFTFSDYYMNWIRQAPGKGLEWVSYISSSGSIIYYADSVKGRFTISRDNAKNSLYLQMNSLRAEDTAVYYCARDGHIAARGMDVWGQGTTVTVSS
VL: DIQMTQSPSSLSASVGDRVTITCRASQSFSRYINWYQQKPGKAPKLLIYAASSLQGGVPSRFSGSGSGTDFTLTISSLQPEDFATYYCQQTYSNPPITFGQGTRLEIK
Turning to B11, the “Average pTyr Inhibition” value in assay [3] was found to be 93%. Besides, the “PROLIFERATION ASSAY: MG-63 CELLS, IC50” value in assay [4] was determined as 5 nM.

B12: 2.1623.2 (antibody, V domains shown)
VH: QVQLVESGGGLVKPGGSLRLSCAASGFTFSDYYMNWIRQAPGKGLEWVSFISSSGSTIYYADSVKGRFTISRDNAKNSLYLQMNSLRAEDTAVYYCARDGHIAARGMDVWGQGTTVTVSS
VL: DIQMTQSPSSLSASVGDRVTITCRASQSFSRYINWYQQKPGKAPKLLIYAASSLQGGVPSRFSGSGSGTDFTLAISSLQPEDFATYYCQQTYSTPPITFGQGTRLEIK
As to B12, the “Average pTyr Inhibition” value in assay [3] was over 100%. In addition, in assay [4], the “PROLIFERATION ASSAY: MG-63 CELLS, IC50” value is 6.5 nM.

B13: 2.737.1.4 (antibody, V domains shown)
VH: QVQLVESGGGLVKPGGSLRLSCAASGFTFRDYYMSWIRQAPGKGLEWVAFISSSGSIIYYADSVKGRFTISRDNAKNSLFLQMNSLRAEDTAVYYCARDGHIAARGMDVWGQGTTVTVSS
VL: DIQMTQSPSSLSASVGDRVTITCRASQSINKYINWYQQKPGKAPKLLIYAASSLQSGVPSRFNGSGSGTDFTFTINTLQPEDFATYYCQQTYSTPPITFGQGTRLEIK
In the case of B13, the “Average pTyr Inhibition” value in assay [3] came out at 93%. The “PROLIFERATION ASSAY: MG-63 CELLS, IC50” value in assay [4] was found to be 3.72 nM.

B14: 2.1853.3 (antibody, V domains shown)
VH: QVQLVESGGGLVKPGGSLRLSCAASGFTFSDYYMNWIRQAPGKGLEWVSYISSSGSIIYYADSVKGRFTISRDNAKNSLYLQMNSLRAEDTAVYYCARDGRIVARGMDVWGQGTTVTVSS
VL: DIQMTQSPSSLCASVGDRVTITCRASRSITRYLNWYQQKPGKAPKLLIYGASSLQSGVPSRFSGSGSGTDFTLTISSLQPEDFATYYCQQSYSTPPITFGQGTRLEIK
For B14, the “Average pTyr Inhibition” value in assay [3] is over 100%. Also, in assay [4], the “PROLIFERATION ASSAY: MG-63 CELLS, IC50” value was 18 nM.

B15: 2.2071.1.3 (antibody, V domains shown)
VH: QVQLVESGGGLVKPGGSLRLSCAASGFTFSDYYMNWIRQAPGKGLEWVSYISSSGSIIYYADSVKGRFTISRDNAKNSLYLQMNSLRAEDTAVYYCARDGRIVARGMDVWGQGTTVTVSS
VL: DIQMTQSPSSLSASVGDRVTLTCRASHSINRYINWYQQKPGKAPKLLIYAASSLQSGVPSRFSGNGSGTDFTLTISSLQPEDFATYYCQQSYSTPPITFGQGTRLEIT
Take B15: the “Average pTyr Inhibition” value in assay [3] was over 100%. For the same molecule, in assay [4], the “PROLIFERATION ASSAY: MG-63 CELLS, IC50” value stood at 3.3 nM.

B16: 2.2071.1.3 (antibody, V domains shown)
VH: QVQLVESGGGLVKPGGSLRLSCAASGFTFSDYYMNWIRQAPGKGLEWVSYISSSGSIIYYADSVKGRFTISRDNAKNSLYLQMNSLRAEDTAVYYCARDGRIVARGMDVWGQGTTVTVSS
VL: DIQMTQSPSSLSASVGDRVTLTCRASHSINRYINWYQQKPGKAPKLLIYAASSLQSGVPSRFSGNGSGTDFTLTISSLQPEDFATYYCQQSYSTPPITFGQGTRLEIT
Take B16: in assay [1], the “Proliferation Assay: IC50 ng/ml (1-6-06)” value stood at 1280 ng/mL, the “Proliferation Assay: IC50 ng/ml (1-23-06)” value turned out to be 492 ng/mL, the “Proliferation Assay: IC50 (1-6-06)” value is 8.5 nM and the “Proliferation Assay: IC50 (1-23-06)” value worked out at 3.3 nM. Besides, the “pTyr Assay: % Inhibition @ 2 µg/ml” value in assay [1] was 99%. In assay [2], the binding result is “no binding (tested: 10 ug/ml)”.
